Data reported in the supplement of paper PMC10567573.

B1: PTPN9 (parent)
chain: IDFLRVVRNQQSLAVSNMGARSKG
B2: CDC25A (parent)
chain: QLIDPDENKENEAFEFKKPVRPVS

Variants of: B1
Experiment: protein stability index of a GFP-peptide fusion (GPS, HEK-293T) (PSI 1-6); higher = more stable
Details: c terminus: a fixed tail appended
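Further: lentivirally expressed fusions sorted by FACS into six bins by GFP to DsRed ratio, PSI derived from sequencing read proportions per bin multiplied by bin number.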

Protein stability index: each site, then its substitutions
V15: E 2.69 | M 2.61 | Q 2.79 | R 2.31
R5: K 2.39 | N 3.24 | W 2 | Y 2.54
V6: H 2.67
A20: I 1.99 | K 2.69
M18: G 2.85 | E 3.28
G19: M 2.3 | Y 2.16
Q11: A 1.99 | E 2.35
G24: P 2.2
Q10: M 2.54
R21: Y 2.08
S16: G 2.35
V7: Q 2.97
S12: M 2.22
F3: E 4.29 | N 4.45
D2: Y 1.78 | G 2.64
L13: C 2.14 | W 2.72
I1: C 2.8
A14: Q 2.09 | D 2.17
S22: W 2.4 | H 2.55

Variants of: B2
Experiment: as above
Details: c terminus: a fixed tail appended

Protein stability index: each site, then its substitutions
K9: F 4.04 | D 4.97 | V 4.83 | R 4.21 | Q 4.74 | A 4.37 | N 4.65 | P 4.62 | G 4.2 | I 3.89 | H 4.18 | L 3.51
A13: M 4.11 | E 3.57 | S 3.85 | D 4.34 | N 3.77 | V 2.88 | P 4.25 | W 3.02 | H 3.26 | R 3.24 | T 3.9 | I 4.23 | C 3.52 | G 3.71
R21: Q 4.67 | K 4.04 | W 3.28 | M 3.81 | T 4.04 | I 3.39 | H 3.85 | G 4.97 | V 3.19 | F 2.74 | C 4.34 | P 4.46
D4: E 3.99 | N 3.2 | K 3.87 | F 4.09 | M 3.94 | I 3.83 | W 3.45 | H 4.23 | S 3.58 | A 3.67 | Y 3.84 | T 3.65 | R 3.3 | C 3.37 | L 3.91
P5: T 3.61 | H 3.61 | W 3.51 | I 3.07 | V 3.74 | C 4.12 | D 3.92 | G 3.9 | M 3.88 | A 3.99
V23: A 4.32 | D 4.41 | R 3.11 | I 3.43 | G 4.05 | C 3.9 | Q 4.04 | P 3.52 | E 4.1 | H 4.05 | Y 3.32 | S 3.09
P22: Y 4.71 | K 3.25 | N 4.14 | C 4.98 | S 4.05 | M 4.08 | I 4.31 | G 3.66 | T 2.8 | F 3.69 | D 4.45 | H 3.38 | A 3.23 | R 4.23
Q1: E 4.56 | P 4.06 | V 3.6 | S 4.43 | N 3.83 | C 3.81 | W 2.44 | A 4.36 | R 3.44 | D 2.88 | H 4.72 | M 3.97 | F 4.05 | Y 2.32
E12: Q 3.85 | A 3.34 | L 3.56 | K 3.84 | N 3.27 | I 3.34 | T 3.94 | V 3.36 | F 2.87 | Y 3.38 | R 3.1 | P 4.17
E15: N 3.13 | Y 3.02 | T 3.92 | V 3.36 | R 2.37 | H 3.57 | G 2.89 | W 3.54 | I 3.7 | A 4.01 | F 3.41 | M 4.37 | D 3.77
K18: V 4.23 | D 4.47 | H 3.82 | T 4.33 | W 3.73 | A 3.7 | N 4.4 | E 5.52 | P 4.29 | G 4.04 | F 4.33 | Y 4
D6: R 3.58 | I 4.22 | G 3.64 | A 3.75 | K 3.87 | C 4.51 | S 3.74 | M 4.14 | E 3.88 | L 3.23 | Y 4.02 | H 3.94
F14: E 4.78 | A 4.68 | Y 4.12 | V 4.55 | P 4.92 | W 3.2 | R 3.79 | T 3.73 | N 3.98 | C 4.55 | D 5.04 | K 5 | S 4.5
V20: F 3.71 | A 4.09 | N 4.63 | L 2.85 | W 3.59 | K 4.67 | D 4.31 | H 4.3 | S 4 | M 3.82 | Q 3.79
P19: R 3.85 | W 3.87 | Y 3.07 | S 4.09 | N 4.43 | M 3.74 | H 3.95 | T 4.09 | Q 4.02 | V 4.42
I3: R 4.75 | H 4.59 | T 4.12 | N 3.6 | Q 3.95 | V 4.05 | C 3.92 | M 3.75 | K 3.86 | L 3.15 | A 4.23 | Y 3.74 | P 4.3 | E 4.74 | G 4.58
N8: C 4.45 | V 4.94 | I 4.7 | Q 4.95 | M 4.09 | G 5.06 | P 4.28 | L 4.52 | D 4.28 | S 4.05 | A 4.31 | F 4.08
E10: Y 4.78 | T 4.3 | P 3.1 | A 4.25 | F 3.12 | C 3.84 | S 4.2 | G 4.33 | Q 4.29 | I 4.13 | L 3.97 | D 3.98
E7: A 4.25 | P 4.68 | N 3.42 | W 3.3 | M 3.95 | Q 3.58 | R 3.92 | K 4.59 | F 3.63 | G 3.02 | D 3.97 | C 4 | V 4.11 | S 3.37
L2: S 4.16 | W 3.43 | A 4.69 | E 5.02 | C 4.64 | F 3.35 | M 3.72 | T 4.31 | Y 4.17 | H 4.54 | Q 4.41 | V 3.29
K17: R 3.78 | I 3.54 | F 3.88 | P 4.27 | H 3.84 | W 3.43 | E 3.46 | A 4.44 | Q 4.03 | T 3.58 | V 3.98 | Y 3.7 | S 3.48 | N 3.15
F16: T 4.48 | G 3.76 | R 4.53 | V 4.39 | C 4.6 | Q 3.73 | P 3.83 | L 4.56 | M 3.73 | Y 3.58 | I 3.35 | D 4.46 | S 4.21 | E 4.18 | H 4.56
S24: V 3.76 | G 3.54 | H 2.87 | W 3.3 | C 3.5 | K 4.72 | L 3.21 | E 4.67 | R 3.58 | Y 3.73
N11: M 4.25 | D 4.68 | F 4.02 | A 3.81 | P 4.49 | Q 4.32 | W 4.02 | Y 4.29 | K 4.56 | L 4.65
